Patent publication US6900299 (UNIVERSITY OF SOUTH FLORIDA, dated 2005)

B1: RSV-G fused to the GAL4 DNA-binding domain (pM vector) (other)
chain: MKLLSSIEQACDICRLKKLKCSKEKPKCAKCLKNNWECRYSPKTKRSPLTRAHLTEVESRLERLEQLFLLIFPREDLDMILKMDSLQDIKALLTGLFVQDNVNKDAVTDRLASVETDMPLTLRQHRISATSSSEESSNKGQRQLTVSMSKNKDQRTAKTLERTWDTLNHLLFISSCLYKLNLKSVAQITLSILAMIISTSLIIAAIIFIASANHKVTPTTAIIQDATSQIKNTTPTYLTQNPQLGISPSNPSEITSQITTILASTTPGVKSTLQSTTVKTKNTTTTQTQPSKPTTKQRQNKPPSKPNNDFHFEVFNFVPCSICSNNPTCWAICKRIPNKKPGKKTTTKPTKKPTLKTTKKDPKPQTTKSKEVPTTKPTEEPTINTTKTNIITTLLTSNTTGNPELTSQMETFHSTSSEGNPSPSQVSTTSEYPSQPSSPPNTPRQ
notes: also called cDNA construct expressing G; RSV-G gene product

Tests used:
[1] = target: human ICAM-1 on cells (HEp-2, NHBE, A549, U937) (human) (UniProt P05362); assay: cell-based or functional assay
[2] = target: T1, human ICAM-1 fused to the VP16 activation domain (pVP16 vector) (herpes simplex virus; human, UniProt P05362 28-532); assay: mammalian two-hybrid assay in NIH3T3 cells, CAT reporter (CAT activity similar to the basal level)
T1 construct: Order of the parts follows the usual pVP16 layout; also called ICAM-1 (two-hybrid construct)
T1 sequence (P05362 28-532 limits assumed): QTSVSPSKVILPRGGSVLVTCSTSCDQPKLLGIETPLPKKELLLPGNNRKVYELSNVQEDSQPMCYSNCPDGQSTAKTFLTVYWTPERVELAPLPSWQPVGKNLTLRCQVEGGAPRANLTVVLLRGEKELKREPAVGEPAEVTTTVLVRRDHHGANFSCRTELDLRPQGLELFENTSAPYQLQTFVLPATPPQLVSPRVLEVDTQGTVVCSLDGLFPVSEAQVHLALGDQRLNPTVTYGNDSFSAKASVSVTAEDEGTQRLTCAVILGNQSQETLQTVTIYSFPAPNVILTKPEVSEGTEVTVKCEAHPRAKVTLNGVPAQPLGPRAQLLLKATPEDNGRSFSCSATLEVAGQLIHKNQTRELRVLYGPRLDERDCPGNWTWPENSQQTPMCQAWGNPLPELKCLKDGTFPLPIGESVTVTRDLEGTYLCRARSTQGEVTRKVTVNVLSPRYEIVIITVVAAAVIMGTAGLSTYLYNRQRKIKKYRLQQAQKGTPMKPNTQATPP

human ICAM-1 on cells (HEp-2, NHBE, A549, U937) (human), sequence (P05362 28-532): as the sequence (P05362 28-532 limits assumed) above

| Molecule | inhibition of RSV N gene mRNA in HEp-2 cells (RT-PCR) at 400 µg of mAb/ml [1] [%] | inhibition of RSV infection of HEp-2 cells (immunofluorescence, percent infected cells) at 400 µg/ml [1] [%] | reduction in RSV infection of A549 cells at 400 µg of mAb/ml [1] [%] | reduction in RSV infection of NHBE cells at 400 µg of mAb/ml [1] [%] | binding result [2] |
| --- | --- | --- | --- | --- | --- |
| mouse anti-human ICAM-1 mAb (BBA 4) (R & D Systems) (antibody) | 70 | 96 | 67 | 54 |  |
| B1 |  |  |  |  | no binding |
